Source: patent publication US20220202899A1, “COMPOSITION FOR PREVENTION OR TREATMENT OF HAIR LOSS INCLUDING HAPLN1” (HAPLNSCIENCE INC., priority 2019, published 2022)

Experiments:
p-Smad2 = p-Smad2 in human hair germinal matrix cells stimulated with TGF-β2 (Western blotting); format: cell-based; details: HAPLN1 25 ng/mL and/or HA 25 μg/mL; TGF-β2 2 ng/mL, 1 hour
Protocol: (§1) Human hair germinal matrix cells were dispensed into a poly-D-lysine 6-well plate at a concentration of 5.0×10^4 per well and cultured for 24 hours. After 24 hours, the medium was removed and replaced with a new serum-free medium. HAPLN1 was treated with 25 ng/mL and HA with 25 μg/mL, incubated for 23 hours, and then stimulated with TGF-β2 (2 ng/mL) for 1 hour. After collecting cells, a lysis buffer (25 mM Tris-HCl, 1 mM EDTA, 0.1% Triton-X100, phosphatase inhibitor, and protease inhibitor) was added, and all the cells were broken through sonication. p-ERK1/2, p-Smad2, p-MEK1/2, and p-c-Raf in the sample were measured using Western blotting. Optical densities of p-ERK1/2, p-Smad2, p-MEK1/2, and p-c-Raf were compared to those of ERK1/2, Smad2/3, MEK1, and c-Raf using a densitometer. Here, ERK1/2, Smad2/3, MEK1, and c-Raf were used as loading controls.

cell membrane TβRII = experiment: Cell membrane TβRII protein (biotin labelling, immunoprecipitation, Western blotting); format: cell-based, human; details: HAPLN1 25 ng/mL and/or HA 25 μg/mL; TGF-β2 2 ng/mL
Protocol: All proteins present in the cell membrane were labeled with biotin, and immunoprecipitation was performed with a biotin antibody to isolate only the cell membrane protein. In order to confirm changes in the ratio of TβRII among cell membrane proteins, Western blotting was performed. The specific experimental method will now be described.
Human hair germinal matrix cells were dispensed into a poly-D-lysine 100 mm dish at a concentration of 2.7×10^6 and cultured for 24 hours. After 24 hours, the medium was removed and replaced with a new serum-free medium. HAPLN1 was treated with 25 ng/mL and HA with 25 μg/mL, and after 1 hour, TGF-β2 (2 ng/mL) was treated. To label biotin after 23 hours, EZ-Link™ Sulfo-NHS-LC-Biotin (Thermo Fisher Scientific, MA, USA) was treated at a concentration of 250 μg/mL and incubated at 4° C. for 1 hour. The biotin labeling reaction was terminated by treatment with 50 mM Tris-HCl. After collecting cells, a lysis buffer (50 mM Tris-HCl, 150 mM NaCl, 1% NP-40, phosphatase inhibitor, and protease inhibitor) was added, and all the cells were broken through sonication. Cell membrane proteins were isolated by performing immunoprecipitation experiments using anti-biotin antibodies. TβRII in the isolated membrane protein sample was measured using Western blotting. The optical density of TβRII was compared to that of GAPDH using a densitometer.

[1] = test system: human hair germinal matrix cells; experiment: Hair germinal matrix cell proliferating effect, CCK-8 (Example 13); format: cell-based; details: 25 ng/ml
Protocol: In the same manner as described above, HAPLN1 (25 ng/ml), CX3CL1 (25 ng/ml), CDON (25 ng/ml) or minoxidil (10 μM), and human recombinant TGF-β2 were diluted to a final concentration of 2 ng/ml, and the medium of the group containing TGF-β2 was replaced by 200 μl. To reduce an experimental variation, 3 wells per group were treated (triplication).
After incubation for 23 hours, the plate was removed from the incubator, and 20 μl of CCK-8 (WST-8) solution was added to the plate containing the medium and the reagent per 200 μl of the medium for the reaction to be carried out at 37° C. for 1 hour.
Human hair germinal matrix cells were released in a poly-D-lysine-coated flask using a mesenchymal stem cell medium (MSCM), and cultured in a 5% CO2 incubator at 37° C. When the cells were about 90% full, the cells were detached with a 0.05% Trypsin/EDTA solution, and then only the cells were recovered by centrifugation at 1000 rpm for 3 minutes. The recovered cells were dispensed into 96-well poly-D-lysine coated plates (BD bioscience) at 2.0×10^3 per well and cultured for 24 hours, and the final concentrations of HAPLN1, CX3CL1 and CDON were diluted to 25 ng/ml in a serum-free medium. The subsequent process was performed in the same manner as the experiment for the dermal papilla cells to measure the absorbance, and the results are shown in FIG. 22.

hair growth cycle = experiment: Intraperitoneal systemic administration of HAPLN1, mouse hair growth; format: in vivo; details: 20-month-old C57 mice; 0.1 mg/kg intraperitoneally once every 3 days
Protocol: HAPLN1 in the body decreases with age. HAPLN1 was administered to 20-month-old C57 mice with a decrease in HAPLN1 in the body.
Since C57 mice had different hair growth cycles, the cycles of all mice were uniformly adjusted through two hair growth cycles (see the schedule of FIG. 19). Thereafter, HAPLN1 was injected intraperitoneally at 0.1 mg/kg once every 3 days.

TβRII = TβRII protein after HAPLN1 and/or HA in CD44-deficient human hair germinal matrix cells; format: cell-based; details: after CD44 siRNA; HAPLN1 25 ng/mL and/or HA 25 μg/mL; TGF-β2 2 ng/mL, 23 hours
Protocol: The human hair germinal matrix cells, which were made to be deficient in CD44 by using CD44 siRNA, were dispensed into a poly-D-lysine 6-well plate at a concentration of 5.0×10^4 per well and cultured for 24 hours. After 24 hours, the medium was removed and replaced with a low-serum medium. CD44 siRNA and scrambled siRNA were added at a concentration of 25 pmol per well and incubated for 24 hours. After the siRNA and the medium were all removed, the medium was replaced with a serum-free medium having HAPLN1 (25 ng/mL) or HA (25 μg/mL) added thereto, and cultured for 1 hour. TGF-β2 (2 ng/mL) was treated and incubated for 23 hours. After collecting cells, a lysis buffer (25 mM Tris-HCl, 1 mM EDTA, 0.1% Triton-X100, phosphatase inhibitor, and protease inhibitor) was added, and all the cells were broken through sonication. TβRII in the sample was measured using Western blotting. The optical density of TβRII was compared to that of GAPDH using a densitometer.

p-c-Raf = p-c-Raf in human hair germinal matrix cells stimulated with TGF-β2 (Western blotting); format: cell-based; details: HAPLN1 25 ng/mL and/or HA 25 μg/mL; TGF-β2 2 ng/mL, 1 hour
Protocol: as §1

[2] = test system: human hair germinal matrix cells; experiment: Cell proliferation of human hair germinal matrix cells, CCK-8 (Example 10); format: cell-based; details: HAPLN1 25 ng/mL and/or HA 25 μg/mL; TGF-β2 2 ng/mL, 23 hours
Protocol: Human hair germinal matrix cells were dispensed into a poly-D-lysine 96-well plate at a concentration of 2.0×10^4 per well and cultured for 24 hours. After 24 hours, the medium was removed and replaced with a new serum-free medium. HAPLN1 was treated with 25 ng/mL and HA with 25 μg/mL, incubated for 1 hour, and then stimulated with TGF-β2 (2 ng/mL) for 23 hours. CCK-8 (Enzo Biochem, NY, USA) was treated and incubated at 37° C. for 1 hour.

B1: hyaluronan and proteoglycan link protein 1 (protein, UniProt P10915 16-354, looked up)
Hyaluronan and proteoglycan …: DHLSDNYTLDHDRAIHIQAENGPHLLVEAEQAKVFSHRGGNVTLPCKFYRDPTAFGSGIHKIRIKWTKLTSDYLKEVDVFVSMGYHKKTYGGYQGRVFLKGGSDSDASLVITDLTLEDYGRYKCEVIEGLEDDTVVVALDLQGVVFPYFPRLGRYNLNFHEAQQACLDQDAVIASFDQLYDAWRGGLDWCNAGWLSDGSVQYPITKPREPCGGQNTVPGVRNYGFWDKDKSRYDVFCFTSNFNGRFYYLIHPTKLTYDEAVQACLNDGAQIAKVGQIFAAWKILGYDRCDAGWLADGSVRYPISRPRRRCSPTEAAVRFVGFPDKKHKLYGVYCFRAYN
notes: extracellular matrix protein found in cartilage; stabilizes aggregates of hyaluronic acid and proteoglycans
With B1 the “phosphorylation of Smad2” value (p-Smad2) was “no change”, the “cell membrane TβRII protein concentration” value (cell membrane TβRII) was “increased” and the “hair germinal matrix cell proliferation (absorbance at 450 nm)” value ([1]; absence of TGF-β2) was “significant hair germinal matrix cell proliferating activity”. For the same molecule, the “hair germinal matrix cell proliferation (absorbance at 450 nm)” value ([1]; presence of TGF-β2 (2 ng/ml)) was “particularly superior hair germinal matrix cell proliferating activity”, the “entry into the anagen phase” value (hair growth cycle) was “entered the anagen phase in a short period of time” and the “TβRII protein in CD44-deficient cells” value (TβRII) was “not confirmed that TβRII was recovered”. For the same molecule, the “c-Raf activity (p-c-Raf compared to c-Raf)” value (p-c-Raf) was “increased activities” and the “cell proliferation (absorbance at 450 nm) compared to the control group” value [2] was “promoted”.
